Legend:
[1] = biological target: SARS-CoV-2 N-protein N:G215C* (oxidized), full-length (SARS-CoV-2) (UniProt P0DTC9); test: mass photometry
[2] = biological target: SARS-CoV-2 N-protein Nο (Omicron set N:P13L/Δ31–33/R203K/G204R), full-length (SARS-CoV-2) (UniProt P0DTC9); test: mass photometry
[3] = biological target: SARS-CoV-2 N-protein N:R203K/G204R, full-length (SARS-CoV-2) (UniProt P0DTC9); test: mass photometry
[4] = biological target: SARS-CoV-2 N-protein N:G215C (reduced), full-length (SARS-CoV-2) (UniProt P0DTC9); test: AUC
[5] = biological target: SARS-CoV-2 N-protein N:G215C (reduced), full-length (SARS-CoV-2) (UniProt P0DTC9); test: mass photometry
dynamic light scattering = biological target: the molecule itself; test: dynamic light scattering

“SARS-CoV-2 N-protein N:G215C* (oxidized), full-length (from UniProt P0DTC9 1-419) (natural protein)” was tested. Which best-fit effective RNP life-time (with SL7 RNA) [1] did it give?
The best-fit effective RNP life-time (with SL7 RNA) was 41.8 s.

How did the best-fit effective RNP life-time (with SL7 RNA) [2] turn out when “SARS-CoV-2 N-protein Nο (Omicron set N:P13L/Δ31–33/R203K/G204R), full-length (from UniProt P0DTC9 1-419) (natural protein)” was run?
Its best-fit effective RNP life-time (with SL7 RNA) is 58.5 s.

How did the best-fit effective RNP life-time (with SL7 RNA) [3] turn out when “SARS-CoV-2 N-protein N:R203K/G204R, full-length (from UniProt P0DTC9 1-419) (natural protein)” was run?
Its best-fit effective RNP life-time (with SL7 RNA) is 54.6 s.

Which Kd [4] does the source give for “SARS-CoV-2 N-protein N:G215C (reduced), full-length (from UniProt P0DTC9 1-419) (natural protein)” here?
The Kd was 1000 nM.

And the best-fit effective RNP life-time (with SL7 RNA) [5]?
The best-fit effective RNP life-time (with SL7 RNA) was 231 s.

Does MAGNCGDAALALLLLDRLNQLESKMSGKGQQQQGQTV [LRS peptide N_(210–246):G214C] bind (dynamic light scattering)?
Result: binds

Reference: article doi:10.1101/2025.04.26.650775, “Evolution of a fuzzy ribonucleoprotein complex in viral assembly” (bioRxiv, 2025)
